In the DeepSol protein solubility set:

Test: soluble on expression in E. coli; label from the status in PepcDB or PDB records
With “MKKISEQKRKHLENLVDDQGIIGALAIDQRGALKRMMGKYKEVTAQEISDFKVLVSRCLTPETSAILLDPEYGLAAAENRAQTSGLLLAYEKTGYDASTPGRLPDSLDVWSVKRLKEAGADACKFLLYYDVDESEAINERKKAYIERIGSECLAEEIPFFLEIVSYDANNSDSASKEYAKVKPHKVIEAMKEFSKDRYNVDVLKVEVPVNMNFVEGFGTESLYSQDEAQAFFNMQSEATQLPFIFLSAGVSATMFQETLKFAKKAGSSFNGVLCGRATWADGVLPFVQQGAEAAVAWLETTGKTNVEELNQVLRESAVSVFEKIQ” the “soluble on expression in E. coli” value was “not soluble”.
With “VTTMHDVARAAGVSQAAVSYAYNQPHKLSAARRAHIFQVAAELGYAGPNPAGRNLRTGQVGALGLMITDSLRYAFDDPATSQLLKGISEVGELAEVALTLLPCPLESTRVAEGSGVLVRGAVDGFLAYAMPDGHPGMQTAMSRRLPIVVIDGPNPGGLPRVGIRDRQAAKEIAEHVLSLGHRRVGFLVDRLVPDGKGGPVDAARTRAARDHVMKERLAGYASACRKYTVPWSSTVVVEAGGFDYELSRTAVETLLDAGPVTAVIAASDLLALAAIDVAHERGLRVPQDLSVVGFDDIPAARAAGLTTVRQPLVDKGREAAQLLLDIIGGGAGREITLPTELVVRESAGPVTADR” the “soluble on expression in E. coli” value was “not soluble”.
With “MGSDKIHHHHHHMVNLMNINSHYLHNNSHECVSLSVRSKGTTQCPDIKVTQKAHIELGTLATPQLVRRRSGRYTIRLRLKGHAKPFISVSTRTTNRSIAVMRQKELATTAKAFLLDNPEVSKEELREHLKAMAEWLLTEATDDYWNGLDIAWLEDAKVNLRNIAATERLSAVQQTHIVESLKVLEAGQKRVDYGDATGLLDFVADDNTDSANNHTQGSTIGVLSSNLENQQGGSSSVFTYDDLVSMTLAEKITTLATSSYRDLQSSFSTVRGYAPVDLMDRSAWLKARDELLANGKAAITVNKLFVKVRMAIDYALMNGHLQGRNPIEKMKLTKDAESKRRAMTDEEIQMVLKAAESAPEARRWAVLVSIITGARSAEVAQLTKENIVVVDGITCIDINDDEGKKVKNKHSIRLIPLIDGAYGFNLEAFLKFVNTREPKTAIFGMTAGTYTAYFGRSIKGSIDALKDTKNVCMHSLRHSLTGKLKAAGVPLADAQGVLGHSSQSITYDLYGKGHAIGRLSDALRLALSGTGQ” the “soluble on expression in E. coli” value was “not soluble”.
In the case of “MGSDKIHHHHHHMSQVNALQLTGISKSFDGFKALIDADFTACWGEVHALLGENGAGKSSLMNIAAGLYAPETGTLMLDDNPVQLQGPKDASRYRIGMVHQHFKLVKPFTVAQNILLALPEQPGEGSYRKRLRMLERDIVRKAEELGFAIDPSRVVDSLSVAEQQRVEILKVLLAGARILILDEPTAVLTDQEAERLLLTVQAFARQGAAVILVTHKMADVKRYADRVTVMRGGRTIQTLDPQRVSVEQLVQLTVGESVPVAAHHPAVPGEVRLQVKDLRSVGGSALNGVNMTLRAGQIYGIAGVGGNGQAELANALMGLPQATEGDIHLAPFGDLRNASAEQRRQLRIASIPADRYGAALAGSLSVAENFGIGNIHSGHYGSFWRLGYKRLKQDAQRAVESFDVQGVRSLDQKAALLSGGNAQKLVIAREFSRDPQLVLVHSPSRGLDVRATQAVHDRLRAARDAGAAVLLISEDLDEVLALADRIGVMNGGRIVAEFDHPADRQAIGKAMVSHD”, the “soluble on expression in E. coli” value is reported as “not soluble”.
In the case of “MSEEDWPSPKFREHVIQRLEPELARNRQNAPNLPVPGDARQVEEYVFAKCMSKDEYMRTIAKVINAINCNSKSAAVPSVLQPSQFHSPPCTTAGNTPAGGTPGYRAPVPPDPQPTSAQARNPPVTVATTQASTTPSAPNPPGGLPAPSASATAAVAAAVASFPSPDTSIRPGGQITPGSQAPGGGPTPAPNVPFPNGSSQMNGGPAMGQPPPQMGAPNMGGPPNGYGGYGMMNGPPGSGAPMGGNPYNQQIKKDMDQARPWDPSAHMYQQQPQWGAMPPQQPHGYPGRPMNGQGATPTGPSSVLESLINQPQQYPGHHNQMGPPGDRNVAAQRAAAQQQQQQQQQQQQQRPGMVPNQGMMSSEDQTVYSAKLRNMRGSCDSLRTRARQCRHEGNHEAAHKLEVMLSVLEGKRVVSLEYLNHLEMWIARKQDFLNIAPMSQNQNHMGMNDPMMNGEHAMLGNGQVPNPYGGHPGYGHQQYMGPPPPHMQMHQPPMWHQQQHQQQQRMMPQDHMMMQGGGGPVHGMYRGDMGHDPMTSPVNNHRHAPYPNPAAMRNNMRMPNGPGPIGRDRNSMSGSSMSGPSSGAPSMNPMGTPNQKMGTPGSMGGMSGLDDLNYDDFLPNPTPIDALQPTLHVGQNSMNAGPPVQRSNLNETARKELQILDARFEIDPNHQRHDANHIIVVCKIRNQQFPPLRLVVPTTYPAGNVTVDRAVIDLDAYLYDDLQNSVYERLSRPGLSSITDYLNAWEEQVNQYQNQTSGGLDVAFNVGNDFFYDNLNL”, the “soluble on expression in E. coli” value is reported as “not soluble”.
For “MSQTILFVCATGIATSTAVTEKVMEYCKEQGLNVNYSQTNVASLPGNTDGVALVVSTTKVPYELDVPVVNGLPIITGIGEEKVLAQIVSILKK”, the “soluble on expression in E. coli” value was “soluble”.
For “MGSDKIHHHHHHMFAPFAGETSRGEADMSGDLDQATMDRLFAKARTYSKFTKAPVSDDLLRQAWDLARMGPTSVNCQPMRVVFVRSSAAKERLKPALAPGNLDKTMAAPVTAIIAHDMEFYEQLPKLFPHADARAWFVGNEAMIQSTAFRNGTLQGAYFILALRAIGLDCGPMSGFDNAKLDEAFFKGTTLRSNFLVNIGHGDAAGLYPRGPRLDFDEACRVE”, the “soluble on expression in E. coli” value was “not soluble”.
With “MSLKKRIFVTGGAEGIGRAIVEAFCKDGHQVAFCDINAVSGQQTARDTGAIFHPVDVSDKEALESCMQQILDEWKDIDIVINNVGISKFSSITETSVEDFDKILSVNLRPVFITSRLLAIHRKAQSDSNPYGRIINICSTRYLMSEPGSEGYAASKGGIYSLTHALALSLSEWNITVNSIAPGWIQTQNYDQLRPEDHSQHPSRRVGKPEDIARMCLFLCRDENDFINGENITIDGGMTKKMIYTEGHHHHHH” the “soluble on expression in E. coli” value was “soluble”.
With “MGSDKIHHHHHHQSMKKEEVPQNISAFPLGKENTGFKQYFTGESWLAPLTGNKDLNVPMSNVTFEPGCRNNWHSHTGGQILIAVGGVGYYQERGKAARRLLPGDVVEIAPDIEHWHGAAPDSWFSHLAIGCNPQTNKNIWLEQVDDQQYAEATKDNGGTGLSATDPELDAIFGNFTKEVQQYGNLDTKTRLMVTLASNIASQAQTEYRMMLESALNAGITPIEIKEILYQAVAYAGMAKVMDFVGITNEALLAHGVRLPLEGQAVVSAETRFDKGLALQKSIFGERIDQMHKNAPENQKHIQRYLSANCFGDYQTRGGLDVKTRELLTFSILVSLGGCESQVKGHIQGNVNVGNNKDTLLAVVTQLLPYIGYPRTLNAIACLNEVIPEK” the “soluble on expression in E. coli” value was “not soluble”.
In the case of “MHHHHHHSSGRENLYFQGDPRRRNILRSLRRNTKKPKPKPRPSITKATWESNYFGVPLTTVVTPEKPIPIFIERCIEYIEATGLSTEGIYRVSGNKSEMESLQRQFDQDHNLDLAEKDFTVNTVAGAMKSFFSELPDPLVPYNMQIDLVEAHKINDREQKLHALKEVLKKFPKENHEVFKYVISHLNKVSHNNKVNLMTSENLSICFWPTLMRPDFSTMDALTATRTYQTIIELFIQQCPFFFYNR”, the “soluble on expression in E. coli” value is reported as “soluble”.
With “MKLSFSLPPKSKSRVSLNSDRKDCIGAGNLKQFVTEFDPSETLTDSKPKYVIPPIEDRRRSYRSIDLPLPSASGLQFEAEIPSGDGSDNNITYGLNLRQKVENVEKPEPVEKMLLKSMRTDLESLPDAPEKEDFESFPVDGFGEALLAGYGWKPGQGIGLKAKEDVKIVEYEKWSGNEGFGFGKSDKAMKMIDNKLVGSGSHEEVKVGINKIENMEKDRVVRKRNRETEGESRTEVKACKQNYRGQTRETREKTSWLRSHIKVRIISKDVKGGRLYLKKAVVTDVVGPTSCDIAMDETQELVQGIDQELLETALPRRGGSVLVLSGRHKGVYGRLVEKDLDKETGVVCDADSQEMLHVKLDQVAEYIGDPADIGY” the “soluble on expression in E. coli” value was “soluble”.
With “MSGLHILAFGAHADDVEIGMAGTIAKYTKQGYEVGICDLTEADLSSNGTIELRKEEAKVAARIMGVKTRLNLAMPDRGLYMKEEYIREIVKVIRTYKPKLVFAPYYEDRHPDHANCAKLVEEAIFSAGIRKYMPELSPHRVESFYNYMINGFHKPNFCIDISEYLSIKVEALEAYESQFSTGSDGVKTPLTEGYVETVIAREKMFGKEVGVLYAEGFMSKKPVLLHADLLGGCKLGHHHHHH” the “soluble on expression in E. coli” value was “soluble”.
For “MKAFILAAGSGERLEPITHTRPKAFVPILSKPLIEYQIEYLRKCGIRDITVIVSSKNKEYFEKKLKEISIVTQKDDIKGTGAAILSAKFNDEALIIYGDLFFSNEKEICNIITLKENAIIGVKVSNPKDYGVLVLDNQNNLSKIIEKPEIPPSNLINAGIYKLNSDIFTYLDKISISERGELELTDAINLMAKDHRVKVIEYEGYWMDIGKPWNIIDVNKWALDNLVFSQNLGNVEDNVKIKGKVIIEEDAEIKSGTYIEGPVYIGKGSEIGPNSYLRPYTILVEKNKIGASVEVKESVIMEGSKIPHLSYVGDSVIAEDVNFGAGTLIANLRFDEKEVKVNVKGKRISSGRRKLGAFIGGHVRTGINVTILPGVKIGAYARIYPGAVVNRDVGYGEFFKV”, the “soluble on expression in E. coli” value was “soluble”.
For “VGPKTGEENQVLVPNLNPTPENLEVVGDGFKITSSINLVGEEEADENAVNALREFLTANNIEINSENDPNSTTLIIGEVDDDIPELDEALNGTTAENLKEEGYALVSNDGKIAIEGKDGDGTFYGVQTFKQLVKESNIPEVNITDYPTVSARGIVEGFYGTPWTHQDRLDQIKFYGENKLNTYIYAPKDDPYHREKWREPYPESEMQRMQELINASAENKVDFVFGISPGIDIRFDGDAGEEDFNHLITKAESLYDMGVRSFAIYWDDIQDKSAAKHAQVLNRFNEEFVKAKGDVKPLITVPTEYDTGAMVSNGQPRAYTRIFAETVDPSIEVMWTGPGVVTNEIPLSDAQLISGIYNRNMAVWWNYPVTDYFKGKLALGPMHGLDKGLNQYVDFFTVNPMEHAELSKISIHTAADYSWNMDNYDYDKAWNRAIDMLYGDLAEDMKVFANHSTRMDNKTWAKSGREDAPELRAKMDELWNKLSSKEDASALIEELYGEFARMEEACNNLKANLPEVALEECSRQLDELITLAQGDKASLDMIVAQLNEDTEAYESAKEIAQNKLNTALSSFAVISEKVAQSFIQEALSFDLTLINPRTVKITASSEETSGENAPASFASDGDMNTFWHSKWSSPAHEGPHHLTLELDNVYEINKVKYAPRQDSKNGRITGYKVSVSLDGENFTEVKTGTLEDNAAIKFIEFDSVDAKYVRLDVTDSVSDQANGRGKFATAAEVNVHG”, the “soluble on expression in E. coli” value was “soluble”.
With “MSMSNGDAQKDTKTTAETKQTEQKTADSKKSNTQNSEFSLESQYFNDIKKVDGLETIQNPENILALVNKQYALPGNYEPSDLVIPDVEFSFEEKIQKRYIRKEAADALKTMFDAAKKEGYELAAVSGYRSYDRQKVIFDNEVSLKGERKAKEAVAYPGESEHQTGLAMDISSRSNGFELNEAFGSTADGKWVQDNAYKYGFIIRYPKNKEDITKYEYEPWHLRYVGKKAAKVIQDNDLTLEEYFEKVKKILEHHHHHH” the “soluble on expression in E. coli” value was “not soluble”.
With “MKRFFLFILPVLLVITACKAPEEIVLPDKNLNVADRTIVYKKEPYTGKLVLPKSPRGNEGYMYVKDGHLEGNAEIKNEKDGFLLKYNINAGKFQGELLYKSGDGQLTLNVDKGVILSMQMSNDKEKTEYNFTFTDGLANGVFRHENKKNTAEIVFTDGMAKIENDGNIDVEAKFSINQNTWMITMESFVDGKSYSKTEKFLGINLETIEDIVFSSIEDYKTQK” the “soluble on expression in E. coli” value was “not soluble”.
In the case of “MAHHHHHHMRTAVGSGAGASAAARAIPTAVPLTVADIDALARRDGVVSSDAVVSQQGTVASSRSVAELQAVVQSLQQENAELRERLERDRRQMLRSAMDVRDLHASQKQIRQRDLDRIEWLYCDNQRLRKILEMQGSAQELAGVLSPQPPAAAPATAHRPSLEGLRPLPEVPVELNAIEEEMPALEAEVVHLRGALVLKTQHLDDLWGHAERAEGYVQDLLQKLEHVQGIVREESDSCARRSKHLESTDQPLEDIVSFVSLRDHSSATQLTGPSSTTPFPFATVGRCEHIKRAAAVHGG”, the “soluble on expression in E. coli” value is reported as “not soluble”.
